Assay results from patent US20210292393A1.
Where “and” joins values, the source holds several entries; their conditions need not be identical. Equal entries are not always repeated.

B1: antibody 267 (antibody, V domains shown)
VH: EVHLVQSGAEMKKPGATVKISCKVSGNTFIDHYIQWVQQAPGKGFEWMGLVDPEDGETIYAEKFQGRVTITADTSRDTAYMELSSLKSEDTAVYYCGTHGDYLDYWGQGTLVTVSS
VL: FYELTQPSSVSVSPGQTALITCSGDVVAKKYARWFQQKAGQAPVLVIYKDTERPSGIPERISGSSSGTTVTLTISGAQVEDEADYYCYSATDNNLVFGGGTKVTVL
B2: antibody 259 (antibody, V domains shown)
VH: EVQLVQSGAEVKKPGATVKISCKVSGYTFTDYYMHWVQQAPGKGLEWMGLVDPEDGETIYAEKFQGRVTITADTSTDTAYMELSSLRSEDTAVYYCATDLLSWKLYCSGGSCPQMDVWGQGTTVTVSS
VL: DIQMTQSPSSLSASVGDRVTITCRASQGIRNDLGWYQQKPGKAPKRLIYAASSLQSGVPSRFSGSGSGTEFTLTISSLQPEDFATYYCLQHNSYPQTFGQGTKLEIK
B3: antibody 270 (antibody, V domains shown)
VH: QVQLVQSGAEVKRPGTSVKVSCKTSGYTFTDHFIHWVRQAPGRRLEWMGWINPNSGGTNYAQNFQGRVTMTRDTSITTAYMDLTRLTSDDTAIYYCAREAAYGSGNLNWFDPWGQGTRVTVSS
VL: NFMLTQPHSVSESPGKTVTISCTGSSGSIAANYVHWYQQRPGSAPRTVIYEDNQRPSGVPDRFSGSIDSSSNSASLTISGLKTEDEADYYCQSYDGDSWVFGGGTKLTVL
B4: antibody 521 (antibody, V domains shown)
VH: QVQLVESGGGVVQPGRSLRLSCAASGFTFSSYGMHWVRQAPGKGLEWVAVIWYDGSNKYYADSVKGRFTISRDNSKNTLYLQMNSLRAEDTAVYYCAREGNDYGDYGEWELLGYFDYWGQGTLVTVSS
VL: SYELTQPPSVSVSPGQTARITCSGDALPKKYAYWYQQKSGQAPVLVIYEDSKRPSGIPERFSGSSSGTMATLTISGAQVEDEADYYCYSTDSSGNHRRVFGGGTKLTVL
B5: antibody 493 (antibody, V domains shown)
VH: EVQLVESGGGLIQPGRSLRLSCAASGFTVSITYMSWVRQAPGKGLEWVSLIYSGGSSYYADSVKGRFTISRDNSKNTLYLQMNSLRAEDTAVYYCATTMVRGVIISYYYGMDVWGQGTTVTVSS
VL: QSALTQPASVSGSPGQSITISCTGTSSDVGGYNYVSWYQQHPGKAPKLMIYEVSNRPSGVSNRFSGSKSGNTASLTISGLQAEDEADYYCSSYTSSSTLVFGGGTKLTVL
B6: antibody 524 (antibody, V domains shown)
VH: QVQLVESGGGVVQPGRSLRLSCAASGFTFSSYAMHWVRQAPGKGLEWVAVISYDGSNKYYADSVKGRFTISRDNSKNTLYLQMNSLRAEDTAVYYCAKAGGGSYYRGFDYWGQGTLVTVSS
VL: QSVLTQPPSVSAAPGQKVTISCSGSNSNIGNNYVSWYQQLPGSAPKLLIYDNDKRPSGIPDRFSGSKSGTSATLGITGLQTGDEADYYCGAWDSSLTALVFGGGTKLTVL
B7: antibody 495 (antibody, V domains shown)
VH: QITLKESGPTLVKPTQTLTLTCTFSGFSLSTSGVGVGWIRQPPGKALEWLALIYWDDDKRYSPSLKSRLTITKDTSKNQVVLIMTNMDPVDTATYYCAHRDSSSWFDLDAFDIWGQGTMVIVSS
VL: QSVLTQPPSVSEAPRQRVTISCSGSSSNIGNNAVNWYQQLPGKAPKLLIYYDDLLPSGVSDRFSGSKSGTSASLAISGLQSEDEADYYCAAWDDRLNGPVFGGGTKLTVL
B8: antibody 490 (antibody, V domains shown)
VH: QVQLQESGPGLVKPSGTLSLTCAVSGGSISSSNWWSWVRQPPGKGLEWIGELYHSGSTNYNPSLKSRVTISVDKSKNQFSLKLSSVTAADTAVYYCARVGPYYYDSSGYYNYFDYWGPGTLVTVSS
VL: EIVLTQSPATLSLSPGERATLSCRASQSVSSYLAWYQQKPGQAPRLLIYDASNRATGIPARFSGSGSGTDFTLTISSLEPEDFAVYYCQQRSNWPPGITFGQGTRLEIK
B9: antibody 499 (antibody, V domains shown)
VH: EVQLVESGGGLVKPGGSLRLSCAASGFTFSSYSMNWVRQAPGKGLEWVSSISSSSSYIYYADSVKGRFTISRDNAKNSLYLQMNSLRAEDTAVYYCARAPAGIVVGPDYWGQGTLVTVSS
VL: NFMLTQPHSVSESPGKTVTISCTGSSGSIASNYVQWYQQRPGSAPTTVIFEDNQRPSGVPDRFSGSIDSSSNSASLTISGLKTEDEADYYCQSYHSSNPHVVFGGGTKLTVL
B10: antibody 374 (antibody, V domains shown)
VH: QVQLQESGPGLVKPSGTLSLTCAVSGGSISSSKWWSWVRQPPGKGLEWIGEIYHSGSTNYNPSLKSRVTISVDKSKNQFSLKLSSVTAADTAVYYCARRELGEGTFTYWGQGTLVTVSS
VL: not shown
B11: antibody 383 (antibody, V domains shown)
VH: EVQLVESGGGLVQPGGSLRLSCAASGFTFSSYDMHWVRQATGKGLEWVSTIGTAGDTYYPGSVKGRFTISRENAKNSLYLQMNSLRAGDTAVYYCARVAYSSSFVYWYFDLWGRGTLVTVSS
VL: DIQMTQSPSSLSASIGDRVTITCRASQSISSYLNWYQQKPGKAPNLLIYAASSLQSGVPSRFSGSGSGTDFTLTISSLQPEDFATYYCQQSYTTPLYTFGQGTKLEIK
B12: antibody 382 (antibody, V domains shown)
VH: QVQLVESGGGVVQPGRSLRLSCAASGFTFSNYGMHWVRQAPGKGLEWMTVISFDGRNKYYADSVKGRFTISRDNSKNTLFLQMNSLTTEDTALYFCASGRRPRYSSGWSFDYWGQGTLVTVSS
VL: DIQMTQSPSSLSASVGDRVTITCQASQDIGNYLNWYQQKLGKAPNLLIYDASNLETGVPSRFSGSGSGTDFTFTINSLQPEDTATYYCQQYDDPSITFGQGTRLEIK
B13: antibody 464 (antibody, V domains shown)
VH: QVQLVQSGAEVKKPGASVKVSCKVSGYTLTELSMHWVRQAPGKGLEWMGGFDPEDGETIYAQKFQGRVTMTEDTSTDTAYMELSSLRSEDTAVYYCATARAFGVANWFDPWGQGTLVTVSS
VL: QSVLTQPPSASGTPGQRVTISCSGSSSNIGSNYVYWYQQLPGTAPKLLIYRNNQRPSGVPDRFSGSKSGTSASLAISGLRSEDEADYYCAAWDDSLSGLYVFGTGTKVTVL
B14: antibody 436 (antibody, V domains shown)
VH: QVQVVESGGGVVQPGRSLRLSCAASGFTFSSYAMHWVRQAPGKGLEWVAVISYDGNNEYYVDPVKGRFTISRDNSKNTLYLQMNSLRAEDTALYYCATSREAIVVGGILDYWGQGTLVTVSS
VL: DIQMTQSPSSLSASVGDRVTITCQASHDINNFLNWYQQKPGQAPKLLIYDASNLETGVPSRFSGSGSGTDFTFTISSLHPEDVATYYCQQYDGLPRYVTFGQGTKLEIR

biological target: SARS-CoV-2 full length spike protein (wild type) (SARS-CoV-2), P0DTC2; assay: not given; details: remark: other sources report otherwise

In order of falling binding signal, bead assay (fold over isotype):
1. B1  312
2. B3  305
3. B2  275

biological target: SARS-CoV-2 full length spike protein, wild type, expressed on the surface of CHO cells (SARS-CoV-2), P0DTC2; assay: not given; details: remark: other sources report otherwise

B4 was tested, and the median fluorescence fold over isotype control (fold over isotype) was 2.42 and 0.86.
For B5, the median fluorescence fold over isotype control (fold over isotype) was 1.26 and 1.1.
In the case of B6, the median fluorescence fold over isotype control (fold over isotype) is reported as 0.58 and 0.55.
In the case of B7, the median fluorescence fold over isotype control (fold over isotype) is reported as 1.23 and 0.83.
With B8 the median fluorescence fold over isotype control (fold over isotype) was 1.07 and 1.28 and 1.08.
In the case of B9, the median fluorescence fold over isotype control (fold over isotype) is reported as 1.35 and 0.9.

biological target: SARS-CoV-2 spike (S) protein (SARS-CoV-2), P0DTC2; assay: not given; details: remark: other sources report otherwise

In order of rising Kd:
1. B11  0.772 nM
2. B10  1.58 nM
3. B12  11.2 nM

In order of rising koff:
1. B11  7.09e-05 s⁻¹
2. B10  7.86e-05 s⁻¹
3. B12  0.00134 s⁻¹

In order of rising kon:
1. B10  49600 M⁻¹ s⁻¹
2. B11  91800 M⁻¹ s⁻¹
3. B12  120000 M⁻¹ s⁻¹

biological target: SARS-CoV-2 spike protein (SARS-CoV-2), P0DTC2; assay: not given; details: remark: other sources report otherwise

In order of rising Kd:
1. B13  4.58 nM
2. B14  19.4 nM

In order of falling koff:
1. B13  0.000512 s⁻¹
2. B14  0.000352 s⁻¹

In order of rising kon:
1. B14  18200 M⁻¹ s⁻¹
2. B13  112000 M⁻¹ s⁻¹

biological target: SARS-CoV-2 spike protein (SARS-CoV-2), P0DTC2; assay: HT-SPR, Carterra LSA; mAb coupled to chip, antigen injected; 1:1 fit; details: remark: other sources report otherwise

Compared with B4, B5 is lower in Kd: 9.9 nM for the first, < 0.133 nM for the second.

Compared with B6, B7 is 480-fold lower in Kd: 34.6 nM for the first, 0.0718 nM for the second. The second binds more tightly here.

B9 showed a Kd of 0.297 nM.

First: B4
Second: B5
The koff of the first is higher: 0.000299 s⁻¹ for the first, < 1e-05 s⁻¹ for the second.

Going from B6 to B7, the koff falls from 0.00272 s⁻¹ to 1.55e-05 s⁻¹ (180-fold).

In the case of B9, the koff is reported as 1.88e-05 s⁻¹.

In order of falling kon:
1. B7  216000 M⁻¹ s⁻¹
2. B6  78600 M⁻¹ s⁻¹
3. B9  63300 M⁻¹ s⁻¹
4. B4  30200 M⁻¹ s⁻¹
